Measured values taken from paper PMC10247153.
pKd: −log10 of the molar value.

What was measured:
[1] = tested on: KDM5C ARID K101A/R107A (Homo sapiens); assay: EMSA; conditions: EMSA: 50 mM HEPES pH 7.5, 50 mM KCl, 1 mM BME, 0.01% Tween-20, 0.01% BSA, 5% sucrose, 1 h on ice; 100 nM nucleosome or 147 bp DNA, 500 nM 20 bp DNA; gel at 4 C.; scale: fold reduction
[2] = tested on: KDM5C1-839 (Homo sapiens); assay: EMSA; conditions: EMSA: 50 mM HEPES pH 7.5, 50 mM KCl, 1 mM BME, 0.01% Tween-20, 0.01% BSA, 5% sucrose, 1 h on ice, 100 nM nucleosome or 147 bp DNA, 500 nM 20 bp DNA, gel at 4 C.; for pKd: apparent Kd
[3] = tested on: KDM5C1-839 A388P (Homo sapiens); assay: EMSA; conditions: apparent Kd, EMSA: 50 mM HEPES pH 7.5, 50 mM KCl, 1 mM BME, 0.01% Tween-20, 0.01% BSA, 5% sucrose, 1 h on ice, 100 nM nucleosome or 147 bp DNA, gel at 4 C.
[4] = tested on: KDM5C1-839 D343A (Homo sapiens); assay: EMSA; conditions: apparent Kd, EMSA: 50 mM HEPES pH 7.5, 50 mM KCl, 1 mM BME, 0.01% Tween-20, 0.01% BSA, 5% sucrose, 1 h on ice, 100 nM nucleosome or 147 bp DNA, gel at 4 C.
[5] = tested on: KDM5C1-839 D87G (Homo sapiens); assay: EMSA; conditions: apparent Kd, EMSA: 50 mM HEPES pH 7.5, 50 mM KCl, 1 mM BME, 0.01% Tween-20, 0.01% BSA, 5% sucrose, 1 h on ice, 100 nM nucleosome or 147 bp DNA, gel at 4 C.
[6] = tested on: KDM5C1-839 ΔAP (Homo sapiens); assay: EMSA; conditions: apparent Kd, EMSA: 50 mM HEPES pH 7.5, 50 mM KCl, 1 mM BME, 0.01% Tween-20, 0.01% BSA, 5% sucrose, 1 h on ice, 100 nM nucleosome or 147 bp DNA, 500 nM 20 bp DNA, gel at 4 C.
[7] = target: H3K4me3 147 bp mononucleosome (human) (UniProt P68431); assay: native gel or EMSA; 100 nM nucleosome with various concentrations of KDM5C; 50 mM HEPES pH 7.5, 50 mM KCl, 1 mM BME, 0.01% Tween-20, 0.01% BSA, 5% sucrose; 1 hr on ice; native 7.5% PAGE at 4 °C; apparent dissociation constants from a cooperative binding fit
[8] = target: H3K4me3 187 bp mononucleosome (human) (UniProt P68431); assay: as above
[9] = target: unmodified 147 bp mononucleosome (human) (UniProt P68431); assay: as above
[10] = target: unmodified 187 bp mononucleosome (human) (UniProt P68431); assay: as above
[11] = target: H3K4me3 147 bp mononucleosome (human) (UniProt P68431)
[12] = target: H3K4me3 187 bp mononucleosome (human) (UniProt P68431)
[13] = tested on: KDM5C1-839 ΔAP A388P (Homo sapiens); assay: EMSA; conditions: apparent Kd; lower limit, saturation unattainable; EMSA: 50 mM HEPES pH 7.5, 50 mM KCl, 1 mM BME, 0.01% Tween-20, 0.01% BSA, 5% sucrose, 1 h on ice; 100 nM nucleosome or 147 bp DNA, 500 nM 20 bp DNA; gel at 4 C.
[14] = histone H3K4me3, 500 nM 20 bp DNA
[15] = lower limit, saturation unattainable

Chain of KDM5C^1–839 (P41229 1-839): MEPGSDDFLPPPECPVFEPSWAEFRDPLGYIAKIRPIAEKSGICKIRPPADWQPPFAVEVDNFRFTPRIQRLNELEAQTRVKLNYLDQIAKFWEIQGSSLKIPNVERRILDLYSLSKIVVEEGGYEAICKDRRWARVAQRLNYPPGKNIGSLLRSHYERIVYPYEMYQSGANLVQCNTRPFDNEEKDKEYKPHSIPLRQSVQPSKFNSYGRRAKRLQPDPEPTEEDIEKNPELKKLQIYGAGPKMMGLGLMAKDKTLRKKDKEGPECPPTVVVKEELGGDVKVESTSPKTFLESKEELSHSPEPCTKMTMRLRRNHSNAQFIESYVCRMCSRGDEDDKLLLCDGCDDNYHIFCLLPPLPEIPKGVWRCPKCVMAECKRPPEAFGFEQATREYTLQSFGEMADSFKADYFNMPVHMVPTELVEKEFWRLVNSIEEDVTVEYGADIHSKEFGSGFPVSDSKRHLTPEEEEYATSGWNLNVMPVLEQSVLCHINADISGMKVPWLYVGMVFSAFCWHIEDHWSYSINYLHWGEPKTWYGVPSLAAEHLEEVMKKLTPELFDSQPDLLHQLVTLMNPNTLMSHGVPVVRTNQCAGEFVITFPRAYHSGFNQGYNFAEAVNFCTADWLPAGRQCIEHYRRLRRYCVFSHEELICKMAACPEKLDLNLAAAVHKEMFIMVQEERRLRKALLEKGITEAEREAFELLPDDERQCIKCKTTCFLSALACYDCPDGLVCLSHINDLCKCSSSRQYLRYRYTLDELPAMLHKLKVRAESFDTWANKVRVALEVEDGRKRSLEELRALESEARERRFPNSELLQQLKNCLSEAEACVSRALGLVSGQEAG

147 bp 601 DNA
binding signal [1]: 22

H3K4me3 147 bp core nucleosome
pKd ([2]; Hill n 2.3, histone H3K4me3): 5.16 | pKd [3, 14]: 5.43 | pKd [4, 14]: 5.05 | pKd [5, 14]: 5.64 | pKd ([6]; Hill n 2.4, histone H3K4me3): 4.70

H3K4me3 187 bp nucleosome
pKd ([2]; histone H3K4me3): 5.14 | pKd [3, 14]: 5.74 | pKd [4, 14]: 5.33 | pKd [5, 14]: 5.89

KDM5C^1–839 (from UniProt P41229-1 1-839) (domain or fragment)
pKd [7]: 5.15 | pKd [8]: 5.15 | pKd [9]: 4.89 | fold gain in affinity against the core (147 bp) nucleosome [10]: 3 fold

KDM5C^1–839 A388P (from UniProt P41229-1 1-839) (domain or fragment)
fold gain in affinity against the H3K4me3 core nucleosome [8]: 2 fold | pKd [10]: 6.00

KDM5C^1–839 D87G (from UniProt P41229-1 1-839) (domain or fragment)
catalytic efficiency kmax/Km^app of demethylation of the H3K4me3 core nucleosome (TR-FRET, single turnover), increase against wild type KDM5C^1–839 [11]: 3 fold | catalytic efficiency kmax/Km^app of demethylation of the 187 bp H3K4me3 nucleosome (TR-FRET, single turnover), against wild type KDM5C^1–839 [12]: 2 fold | fold gain in affinity against the H3K4me3 core nucleosome [8]: 2 fold | pKd [10]: 6.00

KDM5C^1–839 D343A (from UniProt P41229-1 1-839) (domain or fragment)
pKd [7]: 5.05 | pKd [8]: 5.33 | pKd [9]: 5.08 | pKd [10]: 5.49

KDM5C^(1–839 ΔAP) (from UniProt P41229-1 1-82; P41229-1 379-839) (domain or fragment)
fold reduction in affinity against KDM5C^1–839 [7]: 3 fold | fold reduction in affinity against KDM5C^1–839 [9]: 3 fold

unmodified 147 bp core nucleosome
pKd [2, 15]: < 4.90 | pKd ([4]; 500 nM 20 bp …): 5.08 | pKd [6, 15]: < 4.46 | pKd [13]: < 4.35

unmodified 187 bp nucleosome
binding signal ([2]; scale: fold gain in affinity vs 147 bp nucleosome): 3 | pKd ([3]; 500 nM 20 bp …): 6.00 | pKd ([4]; 500 nM 20 bp …): 5.49 | pKd ([5]; 500 nM 20 bp …): 6.00
